# In publication doi:10.1101/2024.07.11.602936 (bioRxiv, 2024):
# B1: glutamine synthetase (GS) (enzyme)
# chain: MATSASSHLNKGIKQMYMNLPQGEKIQLMYIWVDGTGEGLRCKTRTLDCDPKCVEELPEWNFDGSSTFQSEGSNSDMYLHPVAMFRDPFRRDPNKLVFCEVFKYNRKPAETNLRHSCKRIMDMVSSQHPWFGMEQEYTLMGTDGHPFGWPSNGFPGPQGPYYCGVGADKAYGRDIVEAHYRACLYAGIKITGTNAEVMPAQWEFQIGPCEGIRMGDHLWVARFILHRVCEDFGVIATFDPKPIPGNWNGAGCHTNFSTKAMREENGLRCIEEAIDKLSKRHQYHIRAYDPKGGLDNARRLTGFHETSNINDFSAGVANRSASIRIPRIVGQEKKGYFEDRRPSANCDPYAVTEAIVRTCLLNETGDEPFQYKN
# Target: the molecule itself
# Assay: cryo-EM structure
protein,measurement,value
B1,stoichiometry N,10
